Source: the supplement of paper PMC11908140

B1: library; numbered along this chain (parent)
chain: MRKPRAAVGSGHRKQAASQEGRQKHAKNNSQAKPSACDGLARQPEEVVLQASVSSYHLFRDVAEVTAFRGSLLSWYDQEKRDLPWRRRAEDEMDLDRRAYAVWVSEVMLQQTQVATVINYYTGWMQKWPTLQDLASASLEEVNQLWAGLGYYSRGRRLQEGARKVVEELGGHMPRTAETLQQLLPGVGRYTAGAIASIAFGQATGVVDGNVARVLCRVRAIGADPSSTLVSQQLWGLAQQLVDPARPGDFNQAAMELGATVCTPQRPLCSQCPVESLCRARQRVEQEQLLASGSLSGSPDVEECAPNTGQCHLCLPPSEPWDQTLGVVNFPRKASRKPPREESSATCVLEQPGALGAQILLVQRPNSGLLAGLWEFPSVTWEPSEQLQRKALLQELQRWAGPLPATHLRHLGEVVHTFSHIKLTYQVYGLALEGQTPVTTVPPGARWLTQEEFHTAAVSTAMKKVFRVYQGQQPGTCMGSKRSQVSSPCSRKKPRMGQQVLDNFFRSHISTDAHSLNSAAQ

Variants of: B1
Test: 8OG:A repair function score (normalized; synonymous = 0, nonsense = -1) (normalized log-likelihood score); higher = more repair activity (WT-like)
Conditions: with 8OG:A DNA repair reporter (GFP) in HEK-293 MUTYH KO cells
Procedure, shortened: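 Lentiviral MUTYH cDNA NNN codon-scan libraries were expressed in MUTYH knockout HEK-293 cells with 10 pg/ml doxycycline, and the cells received an 8OG:A GFP repair reporter together with mCherry. At 72 h, viable mCherry+ cells went into GFP+ (repair) or GFP− bins, three replicates per tile, before tile amplicons were sequenced. A repair function score was then built from per-tile Rosace fitness scores, anchored on the synonymous and nonsense distributions. Synonymous medians sat at 0 and nonsense at -1, and variants under 300 counts per million at the start were left out.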
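Further: cells sorted at 72 h after reporter transfection.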

Variant | 8OG:A repair function score
MRKPRAAVGSGHRKQAASQEGRQKHAKNNSQAKPSACDGLARQPEEVVLQASVSSYHLFRDVAEVTAFRGSLLSWYDQEKRDLPWRRRAEDEMDLDRRAYAVWVSEVMLQQTQVATVINYYTGWMQKWPTLQDLASASLEEVNQLWAGLGYYSRGRRLQEGARKVVEELGGHMPRTAETLQQLLPGVGRYTAGAIASIAFGQATGVVDGNVARVLCRVRAIGADPSSTLVSQQLWGLAQQLVDPARPGDFNQAAMELGATVCTPQRPLCSQCPVESLCRARQRVEQEQLLASGSLSGSPDVEECAPNTGQCHLCLPPSEPWDQTLGVVNFPRKALRKPPREESSATCVLEQPGALGAQILLVQRPNSGLLAGLWEFPSVTWEPSEQLQRKALLQELQRWAGPLPATHLRHLGEVVHTFSHIKLTYQVYGLALEGQTPVTTVPPGARWLTQEEFHTAAVSTAMKKVFRVYQGQQPGTCMGSKRSQVSSPCSRKKPRMGQQVLDNFFRSHISTDAHSLNSAAQ [S335L] | -0.0705
MRKPRAAVGSGHRKQAASQEGRQKHAKNNSQAKPSACDGLARQPEEVVLQASVSSYHLFRDVAEVTAFRGSLLSWYDQEKRDLPWRRRAEDEMDLDRRAYAVWVSEVMLQQTQVATVINYYTGWMQKWPTLQDLASASLEEVNQLWAGLGYYSRGRRLQEGARKVVEELGGHMPRTAETLQQLLPGVGRYTAGAIASIAFGQATGVVDGNVARVLCRVRAIGADPSSTLVSQQLWGLAQQLVDPARPGDFNQAAMELGATVCTPQRPLCSQCPVESLCRARQRVEQEQLLASGSLSGSPDVEECAPNTGQCHLCLPPSEPWDQTLGVVNFPRKARRKPPREESSATCVLEQPGALGAQILLVQRPNSGLLAGLWEFPSVTWEPSEQLQRKALLQELQRWAGPLPATHLRHLGEVVHTFSHIKLTYQVYGLALEGQTPVTTVPPGARWLTQEEFHTAAVSTAMKKVFRVYQGQQPGTCMGSKRSQVSSPCSRKKPRMGQQVLDNFFRSHISTDAHSLNSAAQ [S335R] | -0.0718
MRKPRAAVGSGHRKQAASQEGRQKHAKNNSQAKPSACDGLARQPEEVVLQASVSSYHLFRDVAEVTAFRGSLLSWYDQEKRDLPWRRRAEDEMDLDRRAYAVWVSEVMLQQTQVATVINYYTGWMQKWPTLQDLASASLEEVNQLWAGLGYYSRGRRLQEGARKVVEELGGHMPRTAETLQQLLPGVGRYTAGAIASIAFGQATGVVDGNVARVLCRVRAIGADPSSTLVSQQLWGLAQQLVDPARPGDFNQAAMELGATVCTPQRPLCSQCPVESLCRARQRVEQEQLLASGSLSGSPDVEECAPNTGQCHLCLPPSEPWDQTLGVVNFPRKAQRKPPREESSATCVLEQPGALGAQILLVQRPNSGLLAGLWEFPSVTWEPSEQLQRKALLQELQRWAGPLPATHLRHLGEVVHTFSHIKLTYQVYGLALEGQTPVTTVPPGARWLTQEEFHTAAVSTAMKKVFRVYQGQQPGTCMGSKRSQVSSPCSRKKPRMGQQVLDNFFRSHISTDAHSLNSAAQ [S335Q] | -0.044
MRKPRAAVGSGHRKQAASQEGRQKHAKNNSQAKPSACDGLARQPEEVVLQASVSSYHLFRDVAEVTAFRGSLLSWYDQEKRDLPWRRRAEDEMDLDRRAYAVWVSEVMLQQTQVATVINYYTGWMQKWPTLQDLASASLEEVNQLWAGLGYYSRGRRLQEGARKVVEELGGHMPRTAETLQQLLPGVGRYTAGAIASIAFGQATGVVDGNVARVLCRVRAIGADPSSTLVSQQLWGLAQQLVDPARPGDFNQAAMELGATVCTPQRPLCSQCPVESLCRARQRVEQEQLLASGSLSGSPDVEECAPNTGQCHLCLPPSEPWDQTLGVVNFPRKAKRKPPREESSATCVLEQPGALGAQILLVQRPNSGLLAGLWEFPSVTWEPSEQLQRKALLQELQRWAGPLPATHLRHLGEVVHTFSHIKLTYQVYGLALEGQTPVTTVPPGARWLTQEEFHTAAVSTAMKKVFRVYQGQQPGTCMGSKRSQVSSPCSRKKPRMGQQVLDNFFRSHISTDAHSLNSAAQ [S335K] | 0.029
MRKPRAAVGSGHRKQAASQEGRQKHAKNNSQAKPSACDGLARQPEEVVLQASVSSYHLFRDVAEVTAFRGSLLSWYDQEKRDLPWRRRAEDEMDLDRRAYAVWVSEVMLQQTQVATVINYYTGWMQKWPTLQDLASASLEEVNQLWAGLGYYSRGRRLQEGARKVVEELGGHMPRTAETLQQLLPGVGRYTAGAIASIAFGQATGVVDGNVARVLCRVRAIGADPSSTLVSQQLWGLAQQLVDPARPGDFNQAAMELGATVCTPQRPLCSQCPVESLCRARQRVEQEQLLASGSLSGSPDVEECAPNTGQCHLCLPPSEPWDQTLGVVNFPRKAMRKPPREESSATCVLEQPGALGAQILLVQRPNSGLLAGLWEFPSVTWEPSEQLQRKALLQELQRWAGPLPATHLRHLGEVVHTFSHIKLTYQVYGLALEGQTPVTTVPPGARWLTQEEFHTAAVSTAMKKVFRVYQGQQPGTCMGSKRSQVSSPCSRKKPRMGQQVLDNFFRSHISTDAHSLNSAAQ [S335M] | -0.0531
MRKPRAAVGSGHRKQAASQEGRQKHAKNNSQAKPSACDGLARQPEEVVLQASVSSYHLFRDVAEVTAFRGSLLSWYDQEKRDLPWRRRAEDEMDLDRRAYAVWVSEVMLQQTQVATVINYYTGWMQKWPTLQDLASASLEEVNQLWAGLGYYSRGRRLQEGARKVVEELGGHMPRTAETLQQLLPGVGRYTAGAIASIAFGQATGVVDGNVARVLCRVRAIGADPSSTLVSQQLWGLAQQLVDPARPGDFNQAAMELGATVCTPQRPLCSQCPVESLCRARQRVEQEQLLASGSLSGSPDVEECAPNTGQCHLCLPPSEPWDQTLGVVNFPRKAPRKPPREESSATCVLEQPGALGAQILLVQRPNSGLLAGLWEFPSVTWEPSEQLQRKALLQELQRWAGPLPATHLRHLGEVVHTFSHIKLTYQVYGLALEGQTPVTTVPPGARWLTQEEFHTAAVSTAMKKVFRVYQGQQPGTCMGSKRSQVSSPCSRKKPRMGQQVLDNFFRSHISTDAHSLNSAAQ [S335P] | -0.028
MRKPRAAVGSGHRKQAASQEGRQKHAKNNSQAKPSACDGLARQPEEVVLQASVSSYHLFRDVAEVTAFRGSLLSWYDQEKRDLPWRRRAEDEMDLDRRAYAVWVSEVMLQQTQVATVINYYTGWMQKWPTLQDLASASLEEVNQLWAGLGYYSRGRRLQEGARKVVEELGGHMPRTAETLQQLLPGVGRYTAGAIASIAFGQATGVVDGNVARVLCRVRAIGADPSSTLVSQQLWGLAQQLVDPARPGDFNQAAMELGATVCTPQRPLCSQCPVESLCRARQRVEQEQLLASGSLSGSPDVEECAPNTGQCHLCLPPSEPWDQTLGVVNFPRKANRKPPREESSATCVLEQPGALGAQILLVQRPNSGLLAGLWEFPSVTWEPSEQLQRKALLQELQRWAGPLPATHLRHLGEVVHTFSHIKLTYQVYGLALEGQTPVTTVPPGARWLTQEEFHTAAVSTAMKKVFRVYQGQQPGTCMGSKRSQVSSPCSRKKPRMGQQVLDNFFRSHISTDAHSLNSAAQ [S335N] | 0.0783
MRKPRAAVGSGHRKQAASQEGRQKHAKNNSQAKPSACDGLARQPEEVVLQASVSSYHLFRDVAEVTAFRGSLLSWYDQEKRDLPWRRRAEDEMDLDRRAYAVWVSEVMLQQTQVATVINYYTGWMQKWPTLQDLASASLEEVNQLWAGLGYYSRGRRLQEGARKVVEELGGHMPRTAETLQQLLPGVGRYTAGAIASIAFGQATGVVDGNVARVLCRVRAIGADPSSTLVSQQLWGLAQQLVDPARPGDFNQAAMELGATVCTPQRPLCSQCPVESLCRARQRVEQEQLLASGSLSGSPDVEECAPNTGQCHLCLPPSEPWDQTLGVVNFPRKAWRKPPREESSATCVLEQPGALGAQILLVQRPNSGLLAGLWEFPSVTWEPSEQLQRKALLQELQRWAGPLPATHLRHLGEVVHTFSHIKLTYQVYGLALEGQTPVTTVPPGARWLTQEEFHTAAVSTAMKKVFRVYQGQQPGTCMGSKRSQVSSPCSRKKPRMGQQVLDNFFRSHISTDAHSLNSAAQ [S335W] | -0.0943
MRKPRAAVGSGHRKQAASQEGRQKHAKNNSQAKPSACDGLARQPEEVVLQASVSSYHLFRDVAEVTAFRGSLLSWYDQEKRDLPWRRRAEDEMDLDRRAYAVWVSEVMLQQTQVATVINYYTGWMQKWPTLQDLASASLEEVNQLWAGLGYYSRGRRLQEGARKVVEELGGHMPRTAETLQQLLPGVGRYTAGAIASIAFGQATGVVDGNVARVLCRVRAIGADPSSTLVSQQLWGLAQQLVDPARPGDFNQAAMELGATVCTPQRPLCSQCPVESLCRARQRVEQEQLLASGSLSGSPDVEECAPNTGQCHLCLPPSEPWDQTLGVVNFPRKAYRKPPREESSATCVLEQPGALGAQILLVQRPNSGLLAGLWEFPSVTWEPSEQLQRKALLQELQRWAGPLPATHLRHLGEVVHTFSHIKLTYQVYGLALEGQTPVTTVPPGARWLTQEEFHTAAVSTAMKKVFRVYQGQQPGTCMGSKRSQVSSPCSRKKPRMGQQVLDNFFRSHISTDAHSLNSAAQ [S335Y] | -0.0347
MRKPRAAVGSGHRKQAASQEGRQKHAKNNSQAKPSACDGLARQPEEVVLQASVSSYHLFRDVAEVTAFRGSLLSWYDQEKRDLPWRRRAEDEMDLDRRAYAVWVSEVMLQQTQVATVINYYTGWMQKWPTLQDLASASLEEVNQLWAGLGYYSRGRRLQEGARKVVEELGGHMPRTAETLQQLLPGVGRYTAGAIASIAFGQATGVVDGNVARVLCRVRAIGADPSSTLVSQQLWGLAQQLVDPARPGDFNQAAMELGATVCTPQRPLCSQCPVESLCRARQRVEQEQLLASGSLSGSPDVEECAPNTGQCHLCLPPSEPWDQTLGVVNFPRKAVRKPPREESSATCVLEQPGALGAQILLVQRPNSGLLAGLWEFPSVTWEPSEQLQRKALLQELQRWAGPLPATHLRHLGEVVHTFSHIKLTYQVYGLALEGQTPVTTVPPGARWLTQEEFHTAAVSTAMKKVFRVYQGQQPGTCMGSKRSQVSSPCSRKKPRMGQQVLDNFFRSHISTDAHSLNSAAQ [S335V] | -0.0166
MRKPRAAVGSGHRKQAASQEGRQKHAKNNSQAKPSACDGLARQPEEVVLQASVSSYHLFRDVAEVTAFRGSLLSWYDQEKRDLPWRRRAEDEMDLDRRAYAVWVSEVMLQQTQVATVINYYTGWMQKWPTLQDLASASLEEVNQLWAGLGYYSRGRRLQEGARKVVEELGGHMPRTAETLQQLLPGVGRYTAGAIASIAFGQATGVVDGNVARVLCRVRAIGADPSSTLVSQQLWGLAQQLVDPARPGDFNQAAMELGATVCTPQRPLCSQCPVESLCRARQRVEQEQLLASGSLSGSPDVEECAPNTGQCHLCLPPSEPWDQTLGVVNFPRKATRKPPREESSATCVLEQPGALGAQILLVQRPNSGLLAGLWEFPSVTWEPSEQLQRKALLQELQRWAGPLPATHLRHLGEVVHTFSHIKLTYQVYGLALEGQTPVTTVPPGARWLTQEEFHTAAVSTAMKKVFRVYQGQQPGTCMGSKRSQVSSPCSRKKPRMGQQVLDNFFRSHISTDAHSLNSAAQ [S335T] | 0.005
MRKPRAAVGSGHRKQAASQEGRQKHAKNNSQAKPSACDGLARQPEEVVLQASVSSYHLFRDVAEVTAFRGSLLSWYDQEKRDLPWRRRAEDEMDLDRRAYAVWVSEVMLQQTQVATVINYYTGWMQKWPTLQDLASASLEEVNQLWAGLGYYSRGRRLQEGARKVVEELGGHMPRTAETLQQLLPGVGRYTAGAIASIAFGQATGVVDGNVARVLCRVRAIGADPSSTLVSQQLWGLAQQLVDPARPGDFNQAAMELGATVCTPQRPLCSQCPVESLCRARQRVEQEQLLASGSLSGSPDVEECAPNTGQCHLCLPPSEPWDQTLGVVNFPRKAIRKPPREESSATCVLEQPGALGAQILLVQRPNSGLLAGLWEFPSVTWEPSEQLQRKALLQELQRWAGPLPATHLRHLGEVVHTFSHIKLTYQVYGLALEGQTPVTTVPPGARWLTQEEFHTAAVSTAMKKVFRVYQGQQPGTCMGSKRSQVSSPCSRKKPRMGQQVLDNFFRSHISTDAHSLNSAAQ [S335I] | -0.000462
